Test results from US20150258192A1, “COMPOSITIONS AND METHODS FOR PREVENTING OR TREATING CHRONIC LUNG ALLOGRAFT DYSFUNCTION (CLAD) AND IDIOPATHIC PULMONARY FIBROSIS (IPF)” (priority 2014, published 2015).
No end group written: not given here.

Legend:
Assay in all cases: Kinase Profiling Assay
Assay type in all cases: biochemical
Conditions in all cases: peptide 100 μM
Abl(Q252H)(h) = Abl(Q252H)(h) (Homo sapiens, UniProt P00519, Q252H)
Method in brief: (§1)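 In this 266-kinase specificity panel, every measurement was duplicated. Transfer of labeled phosphate from ATP to a cationic substrate was quantified after the substrate adhered to an anionic filter membrane and was scintillation-counted, then related to a full-activity control.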

Abl(h) = Abl(h) (Homo sapiens, UniProt P00519)
Method in brief: as §1

GSK3β(h) = target: T1, GSK3β(h) (Homo sapiens, UniProt P49841)
T1 construct: purchased Millipore
Method in brief: as §1

JNK1α1(h) = target: T2, JNK1α1(h) (Homo sapiens, UniProt P45983)
T2 construct: purchased Millipore
Method in brief: as §1

MARK1(h) = target: T3, MARK1(h) (Homo sapiens, UniProt Q9P0L2)
T3 construct: purchased Millipore
Method in brief: as §1

Met(h) = target: T4, Met(h) (Homo sapiens, UniProt P08581)
T4 construct: purchased Millipore
Method in brief: as §1

Rsk3(h) = target: T5, Rsk3(h) (Homo sapiens, UniProt Q15349)
T5 construct: purchased Millipore
Method in brief: as §1

Src(T341M)(h) = target: T6, Src(T341M)(h) (Homo sapiens, UniProt P12931, T341M)
T6 construct: purchased Millipore
Method in brief: as §1

TAO1(h) = target: T7, TAO1(h) (Homo sapiens, UniProt Q7L7X3)
T7 construct: purchased Millipore
T7 sequence (Q7L7X3 1-1001): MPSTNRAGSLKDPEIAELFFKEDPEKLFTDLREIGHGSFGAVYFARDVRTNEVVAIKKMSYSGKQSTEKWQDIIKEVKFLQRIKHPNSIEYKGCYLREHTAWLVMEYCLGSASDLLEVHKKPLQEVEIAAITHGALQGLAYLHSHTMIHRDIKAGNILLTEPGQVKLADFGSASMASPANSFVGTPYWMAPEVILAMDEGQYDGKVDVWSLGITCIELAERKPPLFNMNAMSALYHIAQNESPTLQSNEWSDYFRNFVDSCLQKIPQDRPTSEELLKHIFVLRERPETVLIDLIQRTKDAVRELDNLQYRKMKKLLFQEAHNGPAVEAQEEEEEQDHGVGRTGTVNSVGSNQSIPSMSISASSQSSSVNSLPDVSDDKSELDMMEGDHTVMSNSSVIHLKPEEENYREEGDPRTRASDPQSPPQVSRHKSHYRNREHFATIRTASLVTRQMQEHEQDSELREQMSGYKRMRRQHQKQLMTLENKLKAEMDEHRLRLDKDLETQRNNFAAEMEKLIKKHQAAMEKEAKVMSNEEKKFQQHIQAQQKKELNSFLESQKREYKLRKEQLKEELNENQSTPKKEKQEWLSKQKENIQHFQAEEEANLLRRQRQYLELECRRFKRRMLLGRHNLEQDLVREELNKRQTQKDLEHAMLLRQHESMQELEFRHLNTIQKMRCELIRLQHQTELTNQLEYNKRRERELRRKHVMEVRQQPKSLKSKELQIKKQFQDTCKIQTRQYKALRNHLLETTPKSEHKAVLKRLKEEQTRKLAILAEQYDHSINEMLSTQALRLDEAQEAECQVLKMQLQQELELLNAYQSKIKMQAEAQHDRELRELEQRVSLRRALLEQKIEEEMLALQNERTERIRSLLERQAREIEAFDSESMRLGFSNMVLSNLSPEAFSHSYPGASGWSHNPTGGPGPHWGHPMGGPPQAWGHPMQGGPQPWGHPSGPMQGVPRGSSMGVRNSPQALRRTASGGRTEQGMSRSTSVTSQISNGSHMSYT
Method in brief: as §1

FGFR3(h) = FGFR3(h) (Homo sapiens, UniProt P22607)
Method in brief: as §1

T4 sequence (P08581 25-1390): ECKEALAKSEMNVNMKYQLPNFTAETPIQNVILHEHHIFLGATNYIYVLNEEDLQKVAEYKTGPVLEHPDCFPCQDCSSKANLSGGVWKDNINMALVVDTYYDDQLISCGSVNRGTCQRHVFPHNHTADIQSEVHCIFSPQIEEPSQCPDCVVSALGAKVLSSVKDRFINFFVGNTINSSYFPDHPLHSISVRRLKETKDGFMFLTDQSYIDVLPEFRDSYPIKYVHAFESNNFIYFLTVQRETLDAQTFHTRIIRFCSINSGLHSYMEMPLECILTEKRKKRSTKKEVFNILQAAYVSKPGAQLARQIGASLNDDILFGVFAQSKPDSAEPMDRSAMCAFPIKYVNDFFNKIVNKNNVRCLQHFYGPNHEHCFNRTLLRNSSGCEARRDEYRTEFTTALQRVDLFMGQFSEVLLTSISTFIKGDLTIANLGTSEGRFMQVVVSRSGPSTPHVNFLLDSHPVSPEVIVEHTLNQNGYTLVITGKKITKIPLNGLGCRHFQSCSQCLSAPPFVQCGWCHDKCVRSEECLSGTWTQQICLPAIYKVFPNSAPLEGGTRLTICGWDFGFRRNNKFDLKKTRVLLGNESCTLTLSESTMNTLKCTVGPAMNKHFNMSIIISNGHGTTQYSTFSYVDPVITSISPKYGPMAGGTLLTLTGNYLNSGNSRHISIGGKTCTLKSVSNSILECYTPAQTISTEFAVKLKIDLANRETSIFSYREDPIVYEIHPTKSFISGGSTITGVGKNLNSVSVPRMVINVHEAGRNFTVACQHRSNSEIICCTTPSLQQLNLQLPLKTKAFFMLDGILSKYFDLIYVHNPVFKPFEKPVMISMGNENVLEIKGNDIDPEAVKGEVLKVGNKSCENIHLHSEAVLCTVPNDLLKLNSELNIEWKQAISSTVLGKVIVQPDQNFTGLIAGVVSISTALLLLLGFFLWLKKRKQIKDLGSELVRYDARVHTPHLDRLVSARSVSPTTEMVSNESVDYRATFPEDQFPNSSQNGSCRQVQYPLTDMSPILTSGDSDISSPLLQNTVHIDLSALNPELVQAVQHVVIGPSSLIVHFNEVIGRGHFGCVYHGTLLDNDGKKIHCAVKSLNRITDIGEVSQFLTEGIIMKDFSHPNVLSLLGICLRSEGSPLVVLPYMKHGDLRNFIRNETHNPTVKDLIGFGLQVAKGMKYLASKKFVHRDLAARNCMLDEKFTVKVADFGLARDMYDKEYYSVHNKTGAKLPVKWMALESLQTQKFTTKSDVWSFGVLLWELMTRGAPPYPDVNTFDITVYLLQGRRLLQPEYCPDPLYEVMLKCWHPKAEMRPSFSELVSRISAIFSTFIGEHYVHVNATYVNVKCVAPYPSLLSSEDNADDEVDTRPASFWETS
T1 sequence (P49841 whole entry): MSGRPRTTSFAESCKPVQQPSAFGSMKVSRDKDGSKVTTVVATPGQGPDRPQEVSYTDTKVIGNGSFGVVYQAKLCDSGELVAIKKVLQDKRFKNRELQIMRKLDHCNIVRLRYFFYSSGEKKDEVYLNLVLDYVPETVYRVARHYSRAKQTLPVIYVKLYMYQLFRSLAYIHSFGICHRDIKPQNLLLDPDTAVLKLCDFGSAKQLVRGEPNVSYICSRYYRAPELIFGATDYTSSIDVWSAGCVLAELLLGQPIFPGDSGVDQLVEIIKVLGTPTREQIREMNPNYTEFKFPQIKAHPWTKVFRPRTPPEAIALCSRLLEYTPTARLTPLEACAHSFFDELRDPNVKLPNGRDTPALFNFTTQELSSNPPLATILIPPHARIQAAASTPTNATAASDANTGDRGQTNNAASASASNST
T2 sequence (P45983 1-384 isoform P45983-2): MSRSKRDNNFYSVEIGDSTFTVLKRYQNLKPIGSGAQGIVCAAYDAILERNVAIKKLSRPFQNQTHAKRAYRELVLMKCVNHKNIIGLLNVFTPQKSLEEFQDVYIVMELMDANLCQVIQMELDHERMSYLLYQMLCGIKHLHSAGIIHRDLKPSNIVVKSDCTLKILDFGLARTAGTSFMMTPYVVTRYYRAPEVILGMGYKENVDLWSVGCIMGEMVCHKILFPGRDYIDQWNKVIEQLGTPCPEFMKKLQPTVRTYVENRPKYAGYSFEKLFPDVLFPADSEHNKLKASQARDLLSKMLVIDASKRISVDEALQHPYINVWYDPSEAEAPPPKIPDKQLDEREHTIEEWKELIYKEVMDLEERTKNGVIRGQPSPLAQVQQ
Chain of FGFR3(h) (P22607 23-806): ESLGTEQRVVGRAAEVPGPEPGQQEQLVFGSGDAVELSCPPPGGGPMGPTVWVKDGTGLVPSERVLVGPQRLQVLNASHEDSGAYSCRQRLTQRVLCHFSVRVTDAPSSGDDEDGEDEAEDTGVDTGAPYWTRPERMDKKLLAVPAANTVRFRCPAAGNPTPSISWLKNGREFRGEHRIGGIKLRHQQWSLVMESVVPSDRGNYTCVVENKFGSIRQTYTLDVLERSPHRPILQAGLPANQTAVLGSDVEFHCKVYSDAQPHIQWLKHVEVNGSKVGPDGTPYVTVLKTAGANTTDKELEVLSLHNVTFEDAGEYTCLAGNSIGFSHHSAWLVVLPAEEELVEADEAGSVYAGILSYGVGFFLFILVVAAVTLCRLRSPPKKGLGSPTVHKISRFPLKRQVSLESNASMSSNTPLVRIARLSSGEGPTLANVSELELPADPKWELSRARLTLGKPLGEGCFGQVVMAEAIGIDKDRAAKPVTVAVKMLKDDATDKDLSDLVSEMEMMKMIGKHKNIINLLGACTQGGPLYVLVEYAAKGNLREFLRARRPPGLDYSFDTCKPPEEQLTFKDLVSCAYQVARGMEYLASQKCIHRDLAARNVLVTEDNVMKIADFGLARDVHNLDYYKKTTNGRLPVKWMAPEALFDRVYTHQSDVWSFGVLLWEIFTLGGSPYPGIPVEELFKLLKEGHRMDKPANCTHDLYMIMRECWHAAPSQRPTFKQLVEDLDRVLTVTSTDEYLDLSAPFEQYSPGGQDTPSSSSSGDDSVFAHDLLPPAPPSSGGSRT
T5 sequence (Q15349 whole entry): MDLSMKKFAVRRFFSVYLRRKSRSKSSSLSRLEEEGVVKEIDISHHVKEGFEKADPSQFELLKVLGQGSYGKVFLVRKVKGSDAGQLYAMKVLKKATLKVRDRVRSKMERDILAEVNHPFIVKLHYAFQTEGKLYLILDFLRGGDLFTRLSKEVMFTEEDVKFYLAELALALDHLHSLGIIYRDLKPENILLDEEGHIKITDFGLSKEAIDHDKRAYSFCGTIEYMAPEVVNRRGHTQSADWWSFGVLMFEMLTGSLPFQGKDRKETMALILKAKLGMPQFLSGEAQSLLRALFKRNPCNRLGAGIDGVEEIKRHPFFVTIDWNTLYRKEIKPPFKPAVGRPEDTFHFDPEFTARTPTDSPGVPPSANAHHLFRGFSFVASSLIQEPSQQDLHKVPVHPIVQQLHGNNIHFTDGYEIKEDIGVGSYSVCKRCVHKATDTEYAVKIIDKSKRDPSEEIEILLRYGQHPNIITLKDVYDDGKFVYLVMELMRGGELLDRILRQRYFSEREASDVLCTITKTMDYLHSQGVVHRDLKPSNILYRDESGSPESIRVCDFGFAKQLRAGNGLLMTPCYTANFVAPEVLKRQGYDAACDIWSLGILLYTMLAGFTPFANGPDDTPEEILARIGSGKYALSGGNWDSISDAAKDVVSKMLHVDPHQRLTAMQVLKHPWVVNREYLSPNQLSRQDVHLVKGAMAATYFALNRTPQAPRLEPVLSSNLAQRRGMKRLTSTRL
T3 sequence (Q9P0L2 whole entry): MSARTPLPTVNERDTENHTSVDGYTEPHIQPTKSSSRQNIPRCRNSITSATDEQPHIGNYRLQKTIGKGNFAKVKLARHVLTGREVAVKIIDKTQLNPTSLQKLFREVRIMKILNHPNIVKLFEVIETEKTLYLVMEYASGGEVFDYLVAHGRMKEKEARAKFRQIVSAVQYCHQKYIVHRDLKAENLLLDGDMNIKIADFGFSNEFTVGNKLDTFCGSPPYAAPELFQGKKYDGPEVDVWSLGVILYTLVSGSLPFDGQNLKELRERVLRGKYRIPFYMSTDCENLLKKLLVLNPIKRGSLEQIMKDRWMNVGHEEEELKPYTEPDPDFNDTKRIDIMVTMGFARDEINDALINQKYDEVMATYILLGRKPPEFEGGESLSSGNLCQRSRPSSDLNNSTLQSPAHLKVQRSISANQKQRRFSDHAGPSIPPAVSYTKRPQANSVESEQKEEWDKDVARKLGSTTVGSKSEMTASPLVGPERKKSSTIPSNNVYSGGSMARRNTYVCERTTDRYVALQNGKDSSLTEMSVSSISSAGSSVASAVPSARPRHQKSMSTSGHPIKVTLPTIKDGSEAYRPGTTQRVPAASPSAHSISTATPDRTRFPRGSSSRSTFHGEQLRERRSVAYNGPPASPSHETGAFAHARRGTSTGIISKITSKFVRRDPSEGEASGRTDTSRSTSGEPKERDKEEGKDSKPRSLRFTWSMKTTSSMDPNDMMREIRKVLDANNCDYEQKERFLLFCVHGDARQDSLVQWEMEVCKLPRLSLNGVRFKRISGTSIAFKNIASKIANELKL

Sequence	% activity (Abl(Q252H)(h))	% activity (Abl(h))	% activity (GSK3β(h))	% activity (JNK1α1(h))	% activity (MARK1(h))	% activity (Met(h))	% activity (Rsk3(h))	% activity (Src(T341M)(h))	% activity (TAO1(h))	% activity (FGFR3(h))
FAKLAARLYRKALARQLGVAA [MMI-0300]	82%	69%	205%	97%	132%	65%	76%	70%	82%	–
HRRIKAWLKKIKALARQLGVAA (Mammal) [MMI-0500]	40%	16%	238%	–	110%	27%	23%	59%	24%	10%
KAFAKLAARLYRKALARQLGVAA [MMI-0400]	98%	84%	202%	98%	120%	62%	71%	76%	73%	0%
YARAAARQARAKALARQLGVAA [MMI-0100]	–	–	–	91%	–	–	–	–	99%	73%
YARAAARQARAKALNRQLGVA (Mammal) [MMI-0200]	–	–	132%	–	–	71%	–	56%	–	208%
